Assay results taken from publication PMC6908968 (Cell, 2019).
Substitutions are numbered along the chain they refer to.

B1: 5.6.c3362 (antibody, V domains shown)
VH: QLQLQQSGPGLVKPSETLSLTCNVSGGSISSSSTYSWGWIRQPPGKGLEWIGNIYYSGSTYYNPSLKSRVTISVDTSKNQFSLKLSSVTAADTAVYYCARSFRGPTGAFYYYSYAMDVWGRGTTVTVSS
VL: SSELTQDPAVSVALGQTVRITCQGDSLRTYYASWYQQKPGQAPVLVIYGKKNRPSGIPDRFSGSSSGNTASLTITGAQAEDEADYYCNSQDSSGDLVLFGGGTKVTAL
B2: 5.6.c3479 (antibody, V domains shown)
VH: QVHLVESGGGLVKPGGSLRLSCSVSGFAFSDYYMTWIRQAPGKGLEWVSYISGDGGSIYYADSVKGRFTISRDNAKKSLYLQLNSLRADDTAVYYCARDRCDRDQLLCYYYYGMDVWGQGTTVTVSS
VL: QSVLTQPPSVSAAPGQKVTISCSGSSSNIGNNYVSWYQQLPGTAPKLLIYDNNKRPSGIPDRFSGSKSGTSATLDITGLQTGDEADYYCGTWDNSLIAGVFGGGTKLTVL
B3: 5.6.c3835 (antibody, V domains shown)
VH: QIQLVQSGAEVKKPGASVKVSCRASGYTFASSGISWVRQAPGQGLEWMGWINVYNGDTNSAHKLQGRVTMTTDTSTSTAYMELRSLRSDDTAVYYCTRDSFCAGSNSCYLWAGYYYYAMDVWGQGTTVTVSP
VL: EIVMTQSPATLSVSPGERATLSCRASQSLSSNLAWYQQKPGQAPRLLIYRASTRATGVPARFSGSGSGTEFTLIISNLQSEDFAVYYCQQFQNWPRTFGQGTKVEIK
B4: 5.6.c4011 (antibody, V domains shown)
VH: QVQLQESGPGVVKPSETLSLTCTVSGASMTGYYWSWIRQPPGKGLEWIGYIFYSGSTNYNPSLKSRATISVDTSKKQFSLKLSSVTAADTAVYYCARSVVVIENDAFDIWGQGTMVTVSS
VL: DIQMTQSPSSLSASVGDRVTITCRASQSTTSYLNWYQQKPGKAPKLLIFAASTLQSGVPSRFSGSGSGTDFTLTISSLQPEDFATYYCQQSYSAPYTFGQGTKLEIK
B5: 5.6.c3507 (antibody, V domains shown)
VH: EVQLVESGGGVVQPGGSLRLSCAASGFTFDDYGMHWVRQAPGKGLEWVSFISGDGYSTYYGDSVKGRFTISRDKSKNSLYLQMNSLRTEDTAFYYCAKDGGSTLTTLLYNWFDSWGQGTLVTVSS
VL: DIQMTQSPSSLSASVGDRVTITCRASQSINMYLNWYQQKPGKAPKVLIYGASSLQSGVPSRFSGSGSGTDFTLTISSLQPEDFATYYCQQSYSIPVTFGPGTKVDIK
B6: 5.6.c3567 (antibody, V domains shown)
VH: EVQLVESGGVVVQPGGSLRLSCAASGFTFDDYTMHWVRQVPGKGPEWVSLITWDGAHTYYADSVKGRFTISRDNSKNSLYLQMNSLRTEDTALYFCARDTAGGAFWSGYPDYWGQGTLVTVSS
VL: B5 VL with N30S, M31S, N34I, A43V, Y92H, V96Y, P100Q, V104L, D105E
B7: 5.6.c3508 (antibody, V domains shown)
VH: QVQLEQSGAEVKKPGASVKVSCQAAGYTFTSYGISWVRQAPGQGLEWMGWISADNGNTKYAQNLQARVTMTTDTSTSTAYMEVRRLRSDDTAVYYCARDSGDLSSLLYYGMDVWGQGTTVTVSS
VL: DIQLTQSPSFLSASVGDRVTITCRASQGISSYLAWYQQKPGKAPKLLIDAASTLQSGVPSRISGSRSGTEYTLTISSLQPEDFATYYCQQLNNFPFTFGPGTKVDIK
B8: 5.6.c4392 (antibody, V domains shown)
VH: QVQLVESGGGVVQPGRSLRLSCAASGFFFRNYGIHWVRQAPGKGLEWVAIISYDESKKYYADSVKGRFTISRDNSKNTLYLQMNSLRAEDTAVYYCAKAHPHSRWFFDSWGQGTLVTVSS
VL: NFVLTQPHSVSDSPGKTVTISCTRSSGSIATDYVQWYQQRPGSAPTLVIYEDNQRPSGVPNRFSGSIDSSSNSASLTISGLETEDEADYYCQSYDPTNLVFGGGTKLTVL
B9: 5.6.c4013 (antibody, V domains shown)
VH: EVQLVESGGDLVQPGGSLRLSCAASGFTVNANYLGWVRQTPGKGLEWVSLIYSGSGSTYYADSVKGRFTLSRDSSKNTLFLHMNSLRPEDTAVYYCARAGGVVVTAIRTTFDYWGRGTLVTVSS
VL: DIQMTQSPSTLSASVGDRVTITCRASQSISRWLAWYQQKPGKAPKLLIYRASSLQNGVPSRFSGSGSGTEFTLTISGLQPDDFGIYYCQEYSSRYTFGQGTQLEIK
B10: 5.6.c3557 (antibody, V domains shown)
VH: QVQLVESGGGVVQPGRSLRLSCAASGFSITNYAMHWVRQAPGRGLEWVALISYDGINQYYADSVKGRFTFSRDNSKNTLYLQMNSLRLDDTAVYYCARDPASPSDIFQDAFDIWGQGTTVIVSS
VL: DIQMTQSPSSLSASVGDRVTITCRASQDISGWLAWYQQKPEKAPRSLIYATSSLQSGVPSRFSGSGSGTDFTLTISSLQPEDFATYYCQQYHSYPLTFGGGTKIQIK
B11: 5.6.c3412 (antibody, V domains shown)
VH: QIQLVESGGGVVQPVRSLRLTCAASGFTFSQYGMHWVRQAPGKGLEWVAVISYDGTQKYYSDSVKGRFTISRDNAKNTLSLQMNGLRAEDTAVYYCAKGFLERNFDLWSGSYSDSGWRGPYYGMDFWGQGTTVIVSS
VL: QTVVTQEPSFSVSPGGTVTITCALSSGSVSASLYPSWYQQTPGQAPRTLIYSTNTRSSGVPDRFSGSILGNKAALTITGAQADDESDYYCVLFMSSGIYVFGTGTKVTVL
B12: 5.6.c4395 (antibody, V domains shown)
VH: EVQLVESGGGLVQPGGSLRLSCAASGFTFSTYEMNWVRQAPGKGLEWIAFIDDGGSTINYADSVKGRFTVSRDNAKNSLYLQMNSLRADDTAIYYCARVMTTSFYYYGVDVWGQGTTVTVSS
VL: DIQMTQSPSIVSASVGDRVTITCRASQGVSYWLAWYQQKPGKAPKLLIYAASSLQSGVPSRFSGSGSGTDFTLTISSLQPEDFATYYCQQAHSFPWTFGQGTKVEMK
B13: 5.6.c4471 (antibody, V domains shown)
VH: QIQLVQSGTEVKKPGASVKVSCTASGYTFNNYAITWVRQAPGQGLEWMGWINPYNGDTTYAQKLQGRITMTTGRSTSTAYMDLRSLTSGDTAVYYCARGGAVTDLYFSYVMDVWGQGTTVSVSS
VL: B12 VL with I10S, G28D, Y36F, K45E, Y49H, S76N, A91S, M106I
B14: 5.6.c3397 (antibody, V domains shown)
VH: QVQLQESGPGLVKPSETLSLTCTVSGGSISTYYWSWIRQTPGKGLECIGYINYFGSTNYNPSLKSRVTISIDTSKNQFSLKLSSVTAADTAVYYCARHYGVGTYSGGWFDPWGQGTLVTVSS
VL: DIQMTQSPSSLSASVGDRVTVTCRASQRINSFLNWYQQKPGKAPKLLIYAASSLQSGVPSRFSGTGSGTDFTLTISSLQPEDFATYYCQQSYSSPRTFGQGTKVEIR

Legend:
[1] = molecular target: T1, thermolysin-cleaved EBOV GP on Jurkat-GP cells (cleaved GP) (Zaire ebolavirus, Makona (GP1 core …, strain))
T1 chain 1: not shown
T1 chain 2: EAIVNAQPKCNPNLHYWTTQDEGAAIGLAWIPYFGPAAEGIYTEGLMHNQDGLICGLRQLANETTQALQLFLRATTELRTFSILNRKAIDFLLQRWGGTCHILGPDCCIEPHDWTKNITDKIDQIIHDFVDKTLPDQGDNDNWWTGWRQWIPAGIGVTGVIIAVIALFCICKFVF

[2] = molecular target: EBOV GP ectodomain residues 1-636 (GPec) (Zaire ebolavirus, strain  …, UniProt Q05320)

| Binder | binding result [1] | binding result [2] |
| --- | --- | --- |
| B1 | binds | binds |
| B2 | binds | binds |
| B3 | binds | binds |
| B4 | binds | binds |
| B5 | binds | binds |
| B6 | binds | binds |
| B7 | binds | binds |
| B8 | binds | binds |
| B9 | binds | binds |
| B10 | binds | binds |
| B11 | binds | binds |
| B12 | binds | binds |
| B13 | binds | binds |
| B14 | binds | binds |
